From patent US20200138970A1 (Bayer, published 2020)
Where a chain is given by its changes, count along the chain named.

B1: TPP-6515 (antibody, human IgG1, lambda, V domains shown)
VH: EVQLLESGGGLVQPGGSLRLSCAASGFTFSSYGMHWVRQVPGKGLEWVSAISGSGGTTYYADSVKGRFTISRDNSKNTLYLQMNSLRAEDTAVYYCARGGYHFLFDYWGQGTLVTVSS
VL: QSVLTQPPSASGTPGQRVTISCSGSSSNIGSNTVNWYQQLPGTAPKLLIYRNDQRLLGVPDRFSGSKSGTSASLAISGLRSEDEADYYCQSYDSSLSGWVFGGGTKLTVLG
B2: TPP-6499 (antibody, human IgG1, lambda, V domains shown)
VH: EVQLLESGGGLVQPGGSLRLSCAASGFTFRDFYMNWIRQAPGKGLEWVSSISASGKYTYYADSVKGRFTISRDNSKNTLYLQMNSLRAEDTAVYYCAREWGYCTNDVCRNWFDPWGQGTLVTVSS
VL: QSVLTQPPSASGTPGQRVTISCSGGYSNVGGNNVNWYQQLPGTAPKLLIYGNSNRPSGVPDRFSGSKSGTSASLAISGLRSEDEADYYCQSYDSSLSGSVFGGGTKLTVLG
B3: TPP-6502 (antibody, human IgG1, lambda, V domains shown)
VH: B1 VH with S31T, V40A, T57S, A97T, G100Y, H102Y, F103Y, L104G, F105M, Y107V
VL: B2 VL with Y26S, V29I, G31S, N33P, N54K, S99W
B4: ADC Example 208-6501 (antibody, human IgG1, lambda, V domains shown)
VH: B1 VH with V40A, T57S, G100S, Y101N, H102Y, F103L, L104G, F105M, Y107V
VL: QSVLTQPPSASGTPGQRVTISCSGSSSNIGRNIVNWYQQLPGTAPKLLIYRSNQRPSGVPDRFSGSKSGTSASLAISGLRSEDEADYYCQTWGTGWVFGGGTKLTVLG
modifications: drug-linker from Intermediate F104 on Cys, sites not stated
B5: ADC Example 208-6515 (antibody, human IgG1, lambda, V domains shown)
VH: B1 VH
VL: B1 VL
modifications: drug-linker from Intermediate F104 on Cys, sites not stated
B6: ADC Example 173-6515 (antibody, human IgG1, lambda, V domains shown)
VH: B1 VH
VL: B1 VL
modifications: drug-linker from Intermediate F173 on Cys, sites not stated
B7: ADC Example 208-6499 (antibody, human IgG1, lambda, V domains shown)
VH: B2 VH
VL: B2 VL
modifications: drug-linker from Intermediate F104 on Cys, sites not stated
B8: ADC Example 257-6499 (antibody, human IgG1, lambda, V domains shown)
VH: B2 VH
VL: B2 VL
modifications: drug-linker from Intermediate F257 on Cys, sites not stated
B9: ADC Example 194-6502 (antibody, human IgG1, lambda, V domains shown)
VH: B1 VH with S31T, V40A, T57S, A97T, G100Y, H102Y, F103Y, L104G, F105M, Y107V
VL: B2 VL with Y26S, V29I, G31S, N33P, N54K, S99W
modifications: drug-linker from Intermediate F194 on Lys, sites not stated
B10: ADC Example 208-6502 (antibody, human IgG1, lambda, V domains shown)
VH: B1 VH with S31T, V40A, T57S, A97T, G100Y, H102Y, F103Y, L104G, F105M, Y107V
VL: B2 VL with Y26S, V29I, G31S, N33P, N54K, S99W
modifications: drug-linker from Intermediate F104 on Cys, sites not stated
B11: ADC Example 297-6501 (antibody, human IgG1, lambda, V domains shown)
VH: B1 VH with V40A, T57S, G100S, Y101N, H102Y, F103L, L104G, F105M, Y107V
VL: B4 VL
modifications: drug-linker from Intermediate F297 on Cys, sites not stated
B12: ADC Example 284-6501 (antibody, human IgG1, lambda, V domains shown)
VH: B1 VH with V40A, T57S, G100S, Y101N, H102Y, F103L, L104G, F105M, Y107V
VL: B4 VL
modifications: drug-linker from Intermediate F284 on Cys, sites not stated
B13: ADC Example 281-6501 (antibody, human IgG1, lambda, V domains shown)
VH: B1 VH with V40A, T57S, G100S, Y101N, H102Y, F103L, L104G, F105M, Y107V
VL: B4 VL
modifications: drug-linker from Intermediate F281 on Cys, sites not stated
B14: ADC Example 274-6499 (antibody, human IgG1, lambda, V domains shown)
VH: B2 VH
VL: B2 VL
modifications: drug-linker from Intermediate F274 on Cys, sites not stated

The binders below were run against T1, human B7H3 on cancer cell lines (human, UniProt Q5ZPR3 29-534) (assay: flow cytometry on A498 cells, dose response from 10 ug/mL (1:5 dilution), FITC secondary antibody).
T1 construct: whole, on cells; Endogenous antigen on tumour cells; also called B7H3-positive cells (A498, MCF-7, Caki-2, U251, U87 MG, 786-O, NCI-H292)
T1 sequence (looked up): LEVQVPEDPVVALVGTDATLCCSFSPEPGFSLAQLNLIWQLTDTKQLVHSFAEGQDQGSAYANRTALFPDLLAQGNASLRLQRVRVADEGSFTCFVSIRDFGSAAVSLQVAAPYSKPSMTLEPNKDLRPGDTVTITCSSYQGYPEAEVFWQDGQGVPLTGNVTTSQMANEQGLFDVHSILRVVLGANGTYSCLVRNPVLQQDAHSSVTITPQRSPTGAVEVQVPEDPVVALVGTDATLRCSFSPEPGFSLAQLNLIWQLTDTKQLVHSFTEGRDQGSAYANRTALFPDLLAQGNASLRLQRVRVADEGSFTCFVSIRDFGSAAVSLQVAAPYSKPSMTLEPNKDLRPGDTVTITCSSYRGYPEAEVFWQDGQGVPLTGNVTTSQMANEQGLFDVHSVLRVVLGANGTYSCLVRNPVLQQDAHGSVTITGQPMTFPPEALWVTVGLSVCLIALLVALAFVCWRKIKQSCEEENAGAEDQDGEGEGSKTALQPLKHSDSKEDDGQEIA
Experimental: A dose response curve (1:5 dilution) was generated. Following incubation, 200 μL of ice-cold FACS buffer were pipetted in and the cell suspension was centrifuged at 4° C., 400 g for 4 min. The cell pellet was washed with 300 μL of ice-cold FACS buffer prior to resuspending the pellet obtained in 100 μL of FACS buffer and again incubating for 30 min on ice with secondary antibody (monoclonal anti-kappa light chains FITC antibody, Sigma, No. SAB4700605) in a 1:10 dilution. Subsequently, the cells were washed with ice-cold FACS buffer and adjusted to a cell concentration of 0.5×10⁶ cells/mL before carrying out the flow cytometry using a Guava flow cytometer (Millipore). Propidium iodide (final concentration 1 μg/mL) was used for the live staining. With the aid of the background-corrected geometric mean fluorescence values, the IC50 value of the antibody to be investigated was determined.
For B1, the EC50 was 661 pM. B2 gave an EC50 of 847 pM. With B3 the EC50 was 143 pM.

What follows are binders tested against T2, TPP-3760, B7H3 long, human (R&D Systems 2318-B3/CF) (human, UniProt Q5ZPR3 27-461) (assay: ELISA, IgG captured on anti-human IgG Fc, antigen 37 ng/ml, anti-His HRP detection).
T2 construct: Bought protein; also called B7H3 (RnDSystems, 2318-B3-050/CF); human B7H3
T2 sequence: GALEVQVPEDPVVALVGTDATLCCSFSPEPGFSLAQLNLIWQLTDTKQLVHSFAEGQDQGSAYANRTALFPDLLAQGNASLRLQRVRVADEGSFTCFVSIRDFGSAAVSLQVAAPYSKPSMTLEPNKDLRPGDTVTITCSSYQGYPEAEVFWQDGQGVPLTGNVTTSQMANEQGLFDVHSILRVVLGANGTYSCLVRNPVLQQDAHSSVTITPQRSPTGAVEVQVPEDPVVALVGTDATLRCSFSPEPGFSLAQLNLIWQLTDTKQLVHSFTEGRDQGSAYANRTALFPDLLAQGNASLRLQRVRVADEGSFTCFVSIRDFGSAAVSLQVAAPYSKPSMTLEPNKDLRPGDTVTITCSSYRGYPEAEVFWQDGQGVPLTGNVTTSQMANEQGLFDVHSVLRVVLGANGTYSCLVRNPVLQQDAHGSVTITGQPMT
Experimental: (§1) Binding of the antibodies to human B7H3 and to human B7H2 and B7H4 was characterized using ELISAs. […] After washing once with PSB, 0.05% Tween, the plate was blocked with 100% Smart Block (Candor) for one hour at 37° C. The antibody to be tested was then attached to the plate (2 μg/ml IgG in PBS, 0.05% Tween, 10% Smart Block; 1 hour, room temperature). […] After washing three times, the plate was incubated with Amplex Red for 30 minutes and then read.
For B1, the “Quotient signal (B7)/signal (buffer)” value was 116. For B2, the “Quotient signal (B7)/signal (buffer)” value was 109. For B3, the “Quotient signal (B7)/signal (buffer)” value was 126.

The binders below were run against T3, human B7H2 (RnDSystems, 8206-B7) (human, UniProt O75144 19-258, limits assumed) in the same assay as above.
T3 construct: Bought protein; His tag implied by anti-His detection
T3 sequence (looked up): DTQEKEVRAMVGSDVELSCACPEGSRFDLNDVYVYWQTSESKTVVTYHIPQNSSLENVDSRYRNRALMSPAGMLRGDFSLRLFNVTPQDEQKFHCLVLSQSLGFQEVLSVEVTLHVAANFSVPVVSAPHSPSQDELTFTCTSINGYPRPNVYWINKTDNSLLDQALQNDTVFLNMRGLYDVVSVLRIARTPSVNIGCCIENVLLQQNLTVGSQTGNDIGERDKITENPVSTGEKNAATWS
Experimental: as §1
For B1, the “Quotient signal (B7)/signal (buffer)” value was < 1.5. For B2, the “Quotient signal (B7)/signal (buffer)” value was < 1.5. In the case of B3, the “Quotient signal (B7)/signal (buffer)” value is reported as < 1.5.

What follows are binders tested against T4, human B7H4 (RnDSystems, 6576-B7) (human, UniProt Q7Z7D3 29-258, limits assumed) in the same assay as above.
T4 construct: Bought protein; His tag implied by anti-His detection
T4 sequence (looked up): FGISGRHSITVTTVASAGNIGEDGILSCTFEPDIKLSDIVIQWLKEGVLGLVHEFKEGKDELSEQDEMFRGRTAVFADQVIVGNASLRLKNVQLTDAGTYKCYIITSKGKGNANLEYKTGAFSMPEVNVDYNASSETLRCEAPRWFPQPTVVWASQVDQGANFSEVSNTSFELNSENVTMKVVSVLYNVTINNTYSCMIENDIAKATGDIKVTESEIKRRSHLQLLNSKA
Experimental: as §1
For B1, the “Quotient signal (B7)/signal (buffer)” value was < 1.5. For B2, the “Quotient signal (B7)/signal (buffer)” value was < 1.5. In the case of B3, the “Quotient signal (B7)/signal (buffer)” value is reported as < 1.5.

The binders below were run against T1, human B7H3 on cancer cell lines (assay: cell-based or functional assay).
With B4 the “A498 CTG (IC 50 M)” value was < 30 pM and the “MCF-7 CTG (IC50 M)” value was 161 pM. With B5 the “A498 CTG (IC 50 M)” value was 688 pM and the “MCF-7 CTG (IC50 M)” value was 338 pM. B6 was tested, and the “A498 CTG (IC 50 M)” value was > 307000 pM and the “Caki-2 CTG (IC50 M)” value was 2570 pM. In the case of B7, the “MCF-7 CTG (IC50 M)” value is reported as 135 pM. For B8, the “A498 CTG (IC 50 M)” value was 247 pM and the “Caki-2 CTG (IC50 M)” value was < 30 pM. With B9 the “A498 CTG (IC 50 M)” value was 2930 pM and the “MCF-7 CTG (IC50 M)” value was 1000 pM. B10 was tested, and the “A498 CTG (IC 50 M)” value was 66.7 pM.

Biological target: T1, human B7H3 on cancer cell lines
Experiment: cell-based or functional assay
Remark: another data set of the same source
For B4, the “U251 CTG (IC50 M)” value was 295 pM. For B11, the “U251 CTG (IC50 M)” value was 704 pM. For B12, the “U251 CTG (IC50 M)” value was 62900 pM. In the case of B5, the “U251 CTG (IC50 M)” value is reported as 410 pM. With B13 the “U251 CTG (IC50 M)” value was 29900 pM. With B8 the “U251 CTG (IC50 M)” value was 73.6 pM. With B10 the “U251 CTG (IC50 M)” value was 933 pM. For B14, the “U251 CTG (IC50 M)” value was 1200 pM.
